Measurements as given in patent publication US20170190753A1 (LABORATOIRE FRANCAIS DU FRACTIONNEMENT ET DES …, published 2017).

B1: pCEP4-1NT10-19CT20 (other)
chain: EDCNELPPRRNTEILTGSWSDQTYPEGTQAIYKCRPGYRSLGNVIMVCRKGEWVALNPLRKCQKRPCGHPGDTPFGTFTLTGGNVFEYGVKAVYTCNEGYQLLGEINYRECDTDGWTNDIPICEVVKCLPVTAPENGKIVSSAMEPDREYHFGQAVRFVCNSGYKIEGDEEMHCSDDGFWSKEKPKCVEISCKSPDVINGSPISQKIIYKENERFQYKCNMGYEYSERGDAVCTESGWRPLPSCEEKSCDNPYIPNGDYSPLRIKHRTGDEITYQCRNGFYPATRGNTAKCTSTGWIPAPRCTLKPCDYPDIKHGGLYHENMRRPYFPVAVGKYYSYYCDEHFETPSGSYWDHIHCTQDGWSPAVPCLRKCYFPYLENGYNQNHGRKFVQGKSIDVACHPGYALPKAQTTVTCMENGWSPTPRCIRVKTCSKSSIDIENGFISESQYTYALKEKAKYQCKLGYVTADGETSGSITCGKDGWSAQPTCIKSCDIPVFMNARTKNDFTWFKLNDTLDYECHDGYESNTGSTTGSIVCGYNGWSDLPICYERECELPKIDVHLVPDRKKDQYKVGEVLKFSCKPGFTIVGPNSVQCYHFGLSPDLPICKEQVQSGASGCGPPPPIDNGDITSFPLSVYAPASSVEYQCQNLYQLEGNKRITCRNGQWSEPPKCLHPCVISREIMENYNIALRWTAKQKLYSRTGESVEFVCKRGYRLSSRSHTLRTTCWDGKLEYPTCAKRGGSGHHHHHH
B2: pCEP4-1NT8-19CT20 (other)
chain: EDCNELPPRRNTEILTGSWSDQTYPEGTQAIYKCRPGYRSLGNVIMVCRKGEWVALNPLRKCQKRPCGHPGDTPFGTFTLTGGNVFEYGVKAVYTCNEGYQLLGEINYRECDTDGWTNDIPICEVVKCLPVTAPENGKIVSSAMEPDREYHFGQAVRFVCNSGYKIEGDEEMHCSDDGFWSKEKPKCVEISCKSPDVINGSPISQKIIYKENERFQYKCNMGYEYSERGDAVCTESGWRPLPSCEEKSCDNPYIPNGDYSPLRIKHRTGDEITYQCRNGFYPATRGNTAKCTSTGWIPAPRCTLKPCDYPDIKHGGLYHENMRRPYFPVAVGKYYSYYCDEHFETPSGSYWDHIHCTQDGWSPAVPCLRKCYFPYLENGYNQNYGRKFVQGKSIDVACHPGYALPKAQTTVTCMENGWSPTPRCIRVKTCSKSSIDIENGFISESQYTYALKEKAKYQCKLGYVTADGETSGSITCGKDGWSAQPTCIKSGASGCGPPPPIDNGDITSFPLSVYAPASSVEYQCQNLYQLEGNKRITCRNGQWSEPPKCLHPCVISREIMENYNIALRWTAKQKLYSRTGESVEFVCKRGYRLSSRSHTLRTTCWDGKLEYPTCAKRGGSGHHHHHH
B3: pCEP4-1NT11-19CT20 (other)
chain: EDCNELPPRRNTEILTGSWSDQTYPEGTQAIYKCRPGYRSLGNVIMVCRKGEWVALNPLRKCQKRPCGHPGDTPFGTFTLTGGNVFEYGVKAVYTCNEGYQLLGEINYRECDTDGWTNDIPICEVVKCLPVTAPENGKIVSSAMEPDREYHFGQAVRFVCNSGYKIEGDEEMHCSDDGFWSKEKPKCVEISCKSPDVINGSPISQKIIYKENERFQYKCNMGYEYSERGDAVCTESGWRPLPSCEEKSCDNPYIPNGDYSPLRIKHRTGDEITYQCRNGFYPATRGNTAKCTSTGWIPAPRCTLKPCDYPDIKHGGLYHENMRRPYFPVAVGKYYSYYCDEHFETPSGSYWDHIHCTQDGWSPAVPCLRKCYFPYLENGYNQNHGRKFVQGKSIDVACHPGYALPKAQTTVTCMENGWSPTPRCIRVKTCSKSSIDIENGFISESQYTYALKEKAKYQCKLGYVTADGETSGSITCGKDGWSAQPTCIKSCDIPVFMNARTKNDFTWFKLNDTLDYECHDGYESNTGSTTGSIVCGYNGWSDLPICYERECELPKIDVHLVPDRKKDQYKVGEVLKFSCKPGFTIVGPNSVQCYHFGLSPDLPICKEQVQSCGPPPELLNGNVKEKTKEEYGHSEVVEYYCNPRFLMKGPNKIQCVDGEWTTLPVCIVEESTGASGCGPPPPIDNGDITSFPLSVYAPASSVEYQCQNLYQLEGNKRITCRNGQWSEPPKCLHPCVISREIMENYNIALRWTAKQKLYSRTGESVEFVCKRGYRLSSRSHTLRTTCWDGKLEYPTCAKRGGSGHHHHHH
B4: pCEP4-1NT9-15CT20 (other)
chain: EDCNELPPRRNTEILTGSWSDQTYPEGTQAIYKCRPGYRSLGNVIMVCRKGEWVALNPLRKCQKRPCGHPGDTPFGTFTLTGGNVFEYGVKAVYTCNEGYQLLGEINYRECDTDGWTNDIPICEVVKCLPVTAPENGKIVSSAMEPDREYHFGQAVRFVCNSGYKIEGDEEMHCSDDGFWSKEKPKCVEISCKSPDVINGSPISQKIIYKENERFQYKCNMGYEYSERGDAVCTESGWRPLPSCEEKSCDNPYIPNGDYSPLRIKHRTGDEITYQCRNGFYPATRGNTAKCTSTGWIPAPRCTLKPCDYPDIKHGGLYHENMRRPYFPVAVGKYYSYYCDEHFETPSGSYWDHIHCTQDGWSPAVPCLRKCYFPYLENGYNQNYGRKFVQGKSIDVACHPGYALPKAQTTVTCMENGWSPTPRCIRVKTCSKSSIDIENGFISESQYTYALKEKAKYQCKLGYVTADGETSGSITCGKDGWSAQPTCIKSCDIPVFMNARTKNDFTWFKLNDTLDYECHDGYESNTGSTTGSIVCGYNGWSDLPICYEREGASGCSQPPQIEHGTINSSRSSQESYAHGTKLSYTCEGGFRISEENETTCYMGKWSSPPQCEGLPCKSPPEISHGVVAHMSDSYQYGEEVTYKCFEGFGIDGPAIAKCLGEKWSHPPSCIKTDCLSLPSFENAIPMGEKKDVYKAGEQVTYTCATYYKMDGASNVTCINSRWTGRPTCRDTSCVNPPTVQNAYIVSRQMSKYPSGERVRYQCRSPYEMFGDEEVMCLNGNWTEPPQCKDSTGKCGPPPPIDNGDITSFPLSVYAPASSVEYQCQNLYQLEGNKRITCRNGQWSEPPKCLHPCVISREIMENYNIALRWTAKQKLYSRTGESVEFVCKRGYRLSSRSHTLRTTCWDGKLEYPTCAKRGGSGHHHHHH
B5: pCEP4-1NT8-12CT20 (other)
chain: EDCNELPPRRNTEILTGSWSDQTYPEGTQAIYKCRPGYRSLGNVIMVCRKGEWVALNPLRKCQKRPCGHPGDTPFGTFTLTGGNVFEYGVKAVYTCNEGYQLLGEINYRECDTDGWTNDIPICEVVKCLPVTAPENGKIVSSAMEPDREYHFGQAVRFVCNSGYKIEGDEEMHCSDDGFWSKEKPKCVEISCKSPDVINGSPISQKIIYKENERFQYKCNMGYEYSERGDAVCTESGWRPLPSCEEKSCDNPYIPNGDYSPLRIKHRTGDEITYQCRNGFYPATRGNTAKCTSTGWIPAPRCTLKPCDYPDIKHGGLYHENMRRPYFPVAVGKYYSYYCDEHFETPSGSYWDHIHCTQDGWSPAVPCLRKCYFPYLENGYNQNYGRKFVQGKSIDVACHPGYALPKAQTTVTCMENGWSPTPRCIRVKTCSKSSIDIENGFISESQYTYALKEKAKYQCKLGYVTADGETSGSITCGKDGWSAQPTCIKSGASGCGDIPELEHGWAQLSSPPYYYGDSVEFNCSESFTMIGHRSITCIHGVWTQLPQCVAIDKLKKCKSSNLIILEEHLKNKKEFDHNSNIRYRCRGKEGWIHTVCINGRWDPEVNCSMAQIQLCPPPPQIPNSHNMTTTLNYRDGEKVSVLCQENYLIQEGEEITCKDGRWQSIPLCVEKIPCSQPPQIEHGTINSSRSSQESYAHGTKLSYTCEGGFRISEENETTCYMGKWSSPPQCEGLPCKSPPEISHGVVAHMSDSYQYGEEVTYKCFEGFGIDGPAIAKCLGEKWSHPPSCIKTDCLSLPSFENAIPMGEKKDVYKAGEQVTYTCATYYKMDGASNVTCINSRWTGRPTCRDTSCVNPPTVQNAYIVSRQMSKYPSGERVRYQCRSPYEMFGDEEVMCLNGNWTEPPQCKDSTGKCGPPPPIDNGDITSFPLSVYAPASSVEYQCQNLYQLEGNKRITCRNGQWSEPPKCLHPCVISREIMENYNIALRWTAKQKLYSRTGESVEFVCKRGYRLSSRSHTLRTTCWDGKLEYPTCAKRGGSGHHHHHH
B6: pCEP4-1NT11-14CT20 (other)
chain: EDCNELPPRRNTEILTGSWSDQTYPEGTQAIYKCRPGYRSLGNVIMVCRKGEWVALNPLRKCQKRPCGHPGDTPFGTFTLTGGNVFEYGVKAVYTCNEGYQLLGEINYRECDTDGWTNDIPICEVVKCLPVTAPENGKIVSSAMEPDREYHFGQAVRFVCNSGYKIEGDEEMHCSDDGFWSKEKPKCVEISCKSPDVINGSPISQKIIYKENERFQYKCNMGYEYSERGDAVCTESGWRPLPSCEEKSCDNPYIPNGDYSPLRIKHRTGDEITYQCRNGFYPATRGNTAKCTSTGWIPAPRCTLKPCDYPDIKHGGLYHENMRRPYFPVAVGKYYSYYCDEHFETPSGSYWDHIHCTQDGWSPAVPCLRKCYFPYLENGYNQNHGRKFVQGKSIDVACHPGYALPKAQTTVTCMENGWSPTPRCIRVKTCSKSSIDIENGFISESQYTYALKEKAKYQCKLGYVTADGETSGSITCGKDGWSAQPTCIKSCDIPVFMNARTKNDFTWFKLNDTLDYECHDGYESNTGSTTGSIVCGYNGWSDLPICYERECELPKIDVHLVPDRKKDQYKVGEVLKFSCKPGFTIVGPNSVQCYHFGLSPDLPICKEQVQSCGPPPELLNGNVKEKTKEEYGHSEVVEYYCNPRFLMKGPNKIQCVDGEWTTLPVCIVEESTGASGCPPPPQIPNSHNMTTTLNYRDGEKVSVLCQENYLIQEGEEITCKDGRWQSIPLCVEKIPCSQPPQIEHGTINSSRSSQESYAHGTKLSYTCEGGFRISEENETTCYMGKWSSPPQCEGLPCKSPPEISHGVVAHMSDSYQYGEEVTYKCFEGFGIDGPAIAKCLGEKWSHPPSCIKTDCLSLPSFENAIPMGEKKDVYKAGEQVTYTCATYYKMDGASNVTCINSRWTGRPTCRDTSCVNPPTVQNAYIVSRQMSKYPSGERVRYQCRSPYEMFGDEEVMCLNGNWTEPPQCKDSTGKCGPPPPIDNGDITSFPLSVYAPASSVEYQCQNLYQLEGNKRITCRNGQWSEPPKCLHPCVISREIMENYNIALRWTAKQKLYSRTGESVEFVCKRGYRLSSRSHTLRTTCWDGKLEYPTCAKRGGSGHHHHHH

Target: C3 convertase complex (UniProt P01024 23-1663; P00751 260-764)
Sequence (P01024 23-1663, chain 1 of 2): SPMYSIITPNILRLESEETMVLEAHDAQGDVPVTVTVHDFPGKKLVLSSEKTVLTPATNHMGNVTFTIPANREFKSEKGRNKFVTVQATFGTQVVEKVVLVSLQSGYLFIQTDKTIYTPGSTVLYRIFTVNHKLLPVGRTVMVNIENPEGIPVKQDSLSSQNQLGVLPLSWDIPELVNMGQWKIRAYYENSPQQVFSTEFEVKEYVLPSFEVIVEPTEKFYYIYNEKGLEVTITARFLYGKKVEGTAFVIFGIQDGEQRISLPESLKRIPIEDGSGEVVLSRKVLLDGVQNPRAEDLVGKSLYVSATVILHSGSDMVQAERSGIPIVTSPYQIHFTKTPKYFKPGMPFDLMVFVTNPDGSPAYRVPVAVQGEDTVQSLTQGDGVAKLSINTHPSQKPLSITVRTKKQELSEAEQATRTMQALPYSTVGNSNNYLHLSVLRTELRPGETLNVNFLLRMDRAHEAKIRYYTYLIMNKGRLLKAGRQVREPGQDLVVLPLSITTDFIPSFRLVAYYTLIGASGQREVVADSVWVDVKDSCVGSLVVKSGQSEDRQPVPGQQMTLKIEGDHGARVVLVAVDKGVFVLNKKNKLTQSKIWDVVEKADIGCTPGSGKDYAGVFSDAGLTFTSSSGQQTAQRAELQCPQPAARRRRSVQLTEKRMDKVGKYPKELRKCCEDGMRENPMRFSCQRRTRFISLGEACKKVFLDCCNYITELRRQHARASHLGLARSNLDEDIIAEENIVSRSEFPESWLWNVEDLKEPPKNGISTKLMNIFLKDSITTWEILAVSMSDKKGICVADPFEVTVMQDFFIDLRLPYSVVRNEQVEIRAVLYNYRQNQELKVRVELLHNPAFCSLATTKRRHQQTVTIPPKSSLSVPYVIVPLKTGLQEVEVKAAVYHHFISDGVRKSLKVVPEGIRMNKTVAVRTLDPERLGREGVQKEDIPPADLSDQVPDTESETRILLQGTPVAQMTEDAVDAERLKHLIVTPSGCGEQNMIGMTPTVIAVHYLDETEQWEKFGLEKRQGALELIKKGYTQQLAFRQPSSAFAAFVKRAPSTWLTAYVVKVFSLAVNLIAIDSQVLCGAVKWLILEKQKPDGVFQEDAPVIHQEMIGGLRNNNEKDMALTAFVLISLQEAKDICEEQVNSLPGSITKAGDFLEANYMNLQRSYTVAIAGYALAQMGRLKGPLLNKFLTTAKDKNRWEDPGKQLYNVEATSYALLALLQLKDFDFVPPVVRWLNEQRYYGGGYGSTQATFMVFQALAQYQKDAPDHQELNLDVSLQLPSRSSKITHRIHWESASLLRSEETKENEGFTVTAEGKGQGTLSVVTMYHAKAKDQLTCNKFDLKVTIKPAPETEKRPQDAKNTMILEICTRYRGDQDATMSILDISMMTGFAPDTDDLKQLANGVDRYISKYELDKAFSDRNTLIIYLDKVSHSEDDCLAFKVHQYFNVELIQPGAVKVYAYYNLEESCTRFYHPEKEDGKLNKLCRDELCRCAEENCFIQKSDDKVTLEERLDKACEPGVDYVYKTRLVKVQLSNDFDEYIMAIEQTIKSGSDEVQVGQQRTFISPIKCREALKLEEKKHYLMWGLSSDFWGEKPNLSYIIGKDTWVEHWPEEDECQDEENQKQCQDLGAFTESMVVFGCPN
Sequence (P00751 260-764, chain 2 of 2): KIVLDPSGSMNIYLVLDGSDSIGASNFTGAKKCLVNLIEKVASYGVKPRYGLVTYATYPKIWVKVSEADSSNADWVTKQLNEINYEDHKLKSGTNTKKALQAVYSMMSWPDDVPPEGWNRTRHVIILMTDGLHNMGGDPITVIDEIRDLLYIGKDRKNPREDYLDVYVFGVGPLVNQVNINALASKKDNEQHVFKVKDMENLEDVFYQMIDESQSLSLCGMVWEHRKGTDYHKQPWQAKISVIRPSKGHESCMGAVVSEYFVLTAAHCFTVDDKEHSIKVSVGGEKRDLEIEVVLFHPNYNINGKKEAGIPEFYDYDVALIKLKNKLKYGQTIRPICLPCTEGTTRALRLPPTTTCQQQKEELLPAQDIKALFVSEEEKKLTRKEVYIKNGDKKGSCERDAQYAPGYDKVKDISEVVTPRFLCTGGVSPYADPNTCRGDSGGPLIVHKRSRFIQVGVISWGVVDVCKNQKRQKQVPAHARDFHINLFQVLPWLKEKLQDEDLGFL
Assay: cell-based or functional assay
Wherever C3 convertase activity % of the control is given: test concentration or dose not given here.

Binder	C3 convertase activity % of the control	C3 convertase activity IC50 [µg/mL]
B1	1 % of the control	6.05
B2	0 % of the control	493
B3	5 % of the control	1.78
B4	5 % of the control	2.19
B5	4 % of the control	1.87
B6	6 % of the control	1.99
